To fix the notation:
B1: GST-SKAP [not stated] / GFP-Kif2b [human] (parent)
chain 1: MAAPEAPPLDRVFRTTWLSTECDSHPLPPSYRKFLFETQAADLAGGTTVAAGNLLNESEKDCGQDRRAPGVQPCRLVTMTSVVKTVYSLQPPSALSGGQPADTQTRATSKSLLPVRSKEVDVSKQLHSGGPENDVTKITKLRRENGQMKATDTATRRNVRKGYKPLSKQKSEEELKDKNQLLEAVNKQLHQKLTETQGELKDLTQKVELLEKFRDNCLAILESKGLDPALGSETLASRQESTTDHMDSMLLLETLQEELKLFNETAKKQMEELQALKVKLEMKEERVRFLEQQTLCNNQVNDLTTALKEMEQLLEM
chain 2: MASQFCLPESPCLSPLKPLKPHFGDIQEGIYVAIQRSDKRIHLAVVTEINRENYWVTVEWVEKAVKKGKKIDLETILLLNPALDSAEHPMPPPPLSPLALAPSSAIRDQRTATKWVAMIPQKNQTASGDSLDVRVPSKPCLMKQKKSPCLWEIQKLQEQREKRRRLQQEIRARRALDVNTRNPNYEIMHMIEEYRRHLDSSKISVLEPPQEHRICVCVRKRPLNQRETTLKDLDIITVPSDNVVMVHESKQKVDLTRYLQNQTFCFDHAFDDKASNELVYQFTAQPLVESIFRKGMATCFAYGQTGSGKTYTMGGDFSGTAQDCSKGIYALVAQDVFLLLRNSTYEKLDLKVYGTFFEIYGGKVYDLLNWKKKLQVLEDGNQQIQVVGLQEKEVCCVEEVLNLVEIGNSCRTSRQTPVNAHSSRSHAVFQIILKSGRIMHGKFSLVDLAGNERGADTTKASRKRQLEGAEINKSLLALKECILALGQNKPHTPFRASKLTLVLRDSFIGQNSSTCMIATISPGMTSCENTLNTLRYANRVKKLNVDVRPYHRGHYPIGHEAPRMLKSHIGNSEMSLQRDEFIKIPYVQSEEQKEIEEVETLPTLLGKDTTISGKGSSQWLENIQERAGGVHHDIDFCIARSLSILEQKIDALTEIQKKLKLLLADLHVKSKVE

These results are taken from PMC5159797.

The variants in the assay derive from B1. Briefly: GST pull-down, anti-GFP blot quantified. As to conditions: with GFP-Kif2b [human]; GFP-Kif2b from HEK293T cell lysates; parent: 1; read off a plot.
Take chain 1 S232E S237E T294E: the ratio to parent worked out at 1.2.
chain 1 S232A S237A T294A: the ratio to parent was 0.7.
